Laboratory results taken from PMC4333417 (Nucleic Acids Research, 2015).
Where two headings read alike, the source gives them in different places.

Columns and labels:
[1] = target: the molecule itself; test: SEC
[2] = target: T1, Sco5333 (Streptomyces coelicolor, UniProt Q9ADD4 1-301); test: ITC
T1 sequence: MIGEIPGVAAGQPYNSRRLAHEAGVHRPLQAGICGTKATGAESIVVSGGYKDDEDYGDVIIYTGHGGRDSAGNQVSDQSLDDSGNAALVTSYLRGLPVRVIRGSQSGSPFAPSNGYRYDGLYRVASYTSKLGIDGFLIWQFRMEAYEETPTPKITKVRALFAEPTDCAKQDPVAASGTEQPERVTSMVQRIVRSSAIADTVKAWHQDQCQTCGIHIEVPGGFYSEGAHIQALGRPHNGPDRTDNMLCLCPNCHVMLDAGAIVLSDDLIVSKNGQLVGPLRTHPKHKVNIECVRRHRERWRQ

[3] = target: T2, Sco5333 H228A (Streptomyces coelicolor, UniProt Q9ADD4 1-301, H228A); test: EMSA
T2 sequence: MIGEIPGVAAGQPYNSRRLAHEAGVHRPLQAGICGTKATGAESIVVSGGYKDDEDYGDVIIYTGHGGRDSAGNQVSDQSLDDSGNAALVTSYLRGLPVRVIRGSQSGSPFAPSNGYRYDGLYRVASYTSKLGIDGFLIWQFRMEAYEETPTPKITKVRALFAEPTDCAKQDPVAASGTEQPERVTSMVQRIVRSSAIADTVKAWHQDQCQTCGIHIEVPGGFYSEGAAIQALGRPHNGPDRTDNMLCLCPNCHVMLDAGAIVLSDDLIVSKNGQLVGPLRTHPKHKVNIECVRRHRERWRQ

[4] = target: T3, Sco5333 Y50A (Streptomyces coelicolor, UniProt Q9ADD4 1-301, Y50A); test: EMSA
T3 sequence: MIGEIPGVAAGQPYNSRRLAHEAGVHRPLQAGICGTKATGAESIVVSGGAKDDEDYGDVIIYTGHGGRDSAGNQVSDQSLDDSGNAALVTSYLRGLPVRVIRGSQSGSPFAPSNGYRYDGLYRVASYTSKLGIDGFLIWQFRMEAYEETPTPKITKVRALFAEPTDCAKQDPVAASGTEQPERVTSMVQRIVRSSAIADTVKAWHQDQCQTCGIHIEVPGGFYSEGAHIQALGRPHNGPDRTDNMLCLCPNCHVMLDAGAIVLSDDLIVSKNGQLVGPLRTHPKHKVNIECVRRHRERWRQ

[5] = target: T4, Sco5333 G32A (Streptomyces coelicolor, UniProt Q9ADD4 1-301, G32A); test: EMSA
T4 sequence: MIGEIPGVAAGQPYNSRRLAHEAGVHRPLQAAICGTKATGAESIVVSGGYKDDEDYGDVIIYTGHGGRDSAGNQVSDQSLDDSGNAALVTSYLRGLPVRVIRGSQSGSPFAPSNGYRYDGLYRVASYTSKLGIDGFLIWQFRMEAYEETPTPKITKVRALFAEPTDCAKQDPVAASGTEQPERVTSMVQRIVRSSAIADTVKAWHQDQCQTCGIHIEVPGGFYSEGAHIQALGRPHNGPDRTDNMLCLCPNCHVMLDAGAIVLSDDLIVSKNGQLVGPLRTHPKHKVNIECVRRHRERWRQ

[6] = target: T5, Sco5333 H253A (Streptomyces coelicolor, UniProt Q9ADD4 1-301, H253A); test: EMSA
T5 sequence: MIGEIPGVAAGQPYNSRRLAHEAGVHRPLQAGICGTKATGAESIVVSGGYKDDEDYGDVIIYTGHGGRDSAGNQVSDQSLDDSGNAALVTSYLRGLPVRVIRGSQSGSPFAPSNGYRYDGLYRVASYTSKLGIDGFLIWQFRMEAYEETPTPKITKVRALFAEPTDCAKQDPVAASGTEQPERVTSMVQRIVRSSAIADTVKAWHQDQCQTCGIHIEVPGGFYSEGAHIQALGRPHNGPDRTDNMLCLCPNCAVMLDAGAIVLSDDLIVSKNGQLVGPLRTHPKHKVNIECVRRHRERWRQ

[7] = target: MBD of mouse MeCP2 (mouse, UniProt Q9Z2D6 77-165); test: EMSA
[8] = target: T1, Sco5333; test: ITC; remark: listed apart in the source
[9] = target: T1, Sco5333; test: ITC; remark: listed apart in the source
[10] = target: T6, Tbis1 (Thermobispora bispora DSM 43833, UniProt D6YAC6 2-309); test: EMSA
T6 sequence: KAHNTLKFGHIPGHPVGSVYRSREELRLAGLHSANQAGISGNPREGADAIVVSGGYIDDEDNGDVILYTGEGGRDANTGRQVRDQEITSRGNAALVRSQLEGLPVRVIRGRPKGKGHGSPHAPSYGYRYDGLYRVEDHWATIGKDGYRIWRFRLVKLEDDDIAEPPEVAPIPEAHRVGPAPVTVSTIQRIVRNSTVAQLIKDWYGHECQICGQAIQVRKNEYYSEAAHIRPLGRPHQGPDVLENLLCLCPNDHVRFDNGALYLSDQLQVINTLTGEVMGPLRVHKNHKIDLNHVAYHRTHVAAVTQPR

[11] = target: T7, MBD of human MeCP2 (human, UniProt P51608 77-166); test: EMSA
[12] = target: T7, MBD of human MeCP2; test: EMSA; remark: listed apart in the source
[13] = target: T6, Tbis1; test: EMSA; remark: listed apart in the source
[14] = target: T1, Sco5333; test: EMSA

Chain of MBD of mouse MeCP2 (Q9Z2D6 77-165): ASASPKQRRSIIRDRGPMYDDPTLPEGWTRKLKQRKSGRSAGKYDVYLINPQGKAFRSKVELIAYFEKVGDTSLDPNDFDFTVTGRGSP
T7 sequence (P51608 77-166): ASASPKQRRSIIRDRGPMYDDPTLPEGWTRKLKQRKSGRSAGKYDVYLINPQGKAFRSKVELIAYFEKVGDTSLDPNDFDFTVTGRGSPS

B1: Sco5333 (enzyme, Streptomyces coelicolor, UniProt Q9ADD4 1-301, looked up)
chain: MIGEIPGVAAGQPYNSRRLAHEAGVHRPLQAGICGTKATGAESIVVSGGYKDDEDYGDVIIYTGHGGRDSAGNQVSDQSLDDSGNAALVTSYLRGLPVRVIRGSQSGSPFAPSNGYRYDGLYRVASYTSKLGIDGFLIWQFRMEAYEETPTPKITKVRALFAEPTDCAKQDPVAASGTEQPERVTSMVQRIVRSSAIADTVKAWHQDQCQTCGIHIEVPGGFYSEGAHIQALGRPHNGPDRTDNMLCLCPNCHVMLDAGAIVLSDDLIVSKNGQLVGPLRTHPKHKVNIECVRRHRERWRQ
For B1, the “stoichiometry N” value [1] was 2.

B2: 54nt fully methylated (54nt-1/3) (dsDNA)
DNA 1: GAAACCCGACAGGACTATAAAGATACCGGCGTTTCCCCCTGGAAGCTCCCTCGT
DNA 2: ACGAGGGAGCTTCCAGGGGGAAACGCCGGTATCTTTATAGTCCTGTCGGGTTTC
modifications: 5mC at strand 1 pos 27 and strand 2 pos 27
In the case of B2, the Kd [2] is reported as 4.13 µM, the binding result [3] is reported as “binds” and the binding result [4] is reported as “no binding”. B2: no binding [5]; binds [6]; binds [7].

B3: 54nt top methylated (54nt-1/4) (dsDNA)
DNA 1: GAAACCCGACAGGACTATAAAGATACCGGCGTTTCCCCCTGGAAGCTCCCTCGT
DNA 2: ACGAGGGAGCTTCCAGGGGGAAACGCCGGTATCTTTATAGTCCTGTCGGGTTTC
modifications: 5mC at strand 1 pos 27
For B3, the Kd [8] was 3.14 µM and the binding result [7] was “no binding”.

B4: 54nt bottom methylated (54nt-2/3) (dsDNA)
DNA 1: GAAACCCGACAGGACTATAAAGATACCGGCGTTTCCCCCTGGAAGCTCCCTCGT
DNA 2: ACGAGGGAGCTTCCAGGGGGAAACGCCGGTATCTTTATAGTCCTGTCGGGTTTC
modifications: 5mC at strand 2 pos 27
With B4 the Kd [9] was 1.47 µM and the binding result [7] was “no binding”.

B5: 66nt fully methylated (66nt-1/3) (dsDNA)
DNA 1: AAAAACGGCGTTTCCGGGTTCCATAGGCTCCGCACCGGTCTCTGATGACCAGGGCATCACATTTTT
DNA 2: AAAAATGTGATGCCCTGGTCATCAGAGACCGGTGCGGAGCCTATGGAACCCGGAAACGCCGTTTTT
modifications: 5mC at strand 1 pos 36 and strand 2 pos 30
B5 was tested, and the binding signal [10] was > 100 fold preference over non-methylated and the binding signal [11] was 64 fold preference over non-methylated.

B6: 66nt non-methylated (66nt-2/4) (dsDNA)
DNA 1: AAAAACGGCGTTTCCGGGTTCCATAGGCTCCGCACCGGTCTCTGATGACCAGGGCATCACATTTTT
DNA 2: AAAAATGTGATGCCCTGGTCATCAGAGACCGGTGCGGAGCCTATGGAACCCGGAAACGCCGTTTTT
With B6 the binding signal [12] was 64 protein:DNA molar ratio for shift.

B7: 56nt top methylated (56nt-1/4) (dsDNA)
DNA 1: CGGCGTTTCCGGGTTCCATAGGCTCCGCTCCGGCCTCTGATGACCAGGGCATCACA
DNA 2: TGTGATGCCCTGGTCATCAGAGGCCGGAGCGGAGCCTATGGAACCCGGAAACGCCG
modifications: 5mC at strand 1 pos 31
B7: binds [13].

B8: 56nt bottom methylated (56nt-2/3) (dsDNA)
DNA 1: CGGCGTTTCCGGGTTCCATAGGCTCCGCTCCGGCCTCTGATGACCAGGGCATCACA
DNA 2: TGTGATGCCCTGGTCATCAGAGGCCGGAGCGGAGCCTATGGAACCCGGAAACGCCG
modifications: 5mC at strand 2 pos 25 (Table S3; methods print 24)
B8: binds [13].

B9: 56nt non-methylated (56nt-2/4) (dsDNA)
DNA 1: CGGCGTTTCCGGGTTCCATAGGCTCCGCTCCGGCCTCTGATGACCAGGGCATCACA
DNA 2: TGTGATGCCCTGGTCATCAGAGGCCGGAGCGGAGCCTATGGAACCCGGAAACGCCG
B9: no binding [13].

B10: 55ntDcm1 bottom methylated (55nt-2/3) (dsDNA)
DNA 1: GAAACCCGACAGGACTATAAAGATACCAGGCGTTTCCCCCTGGAAGCTCCCTCGT
DNA 2: ACGAGGGAGCTTCCAGGGGGAAACGCCTGGTATCTTTATAGTCCTGTCGGGTTTC
modifications: 5mC at strand 2 pos 27
B10: binds [14].
